Laboratory results reported in paper PMC11969024 (2025).

B1: peptide HD2 (from tick evasin EVA4) / CCL17 (biotinylated, synthetic) (parent complex)
chain 1: EEDDYTAYAPLTCYFT
chain 2: ARGTNVGRECCLEYFKGAIPLRKLKTWYQTSEDCSRDAIVFVTVQGRAICSDPNNKRVKNAVKYLQSLERS
B2: peptide HD2 (from tick evasin EVA4) / CCL8 (biotinylated, synthetic) (parent complex)
chain 1: EEDDYTAYAPLTCYFT
chain 2: QPDSVSIPITCCFNVINRKIPIQRLESYTRITNIQCPKEAVIFKTKRGKEVCADPKERWVRDSMKHLDQIFQNLKP

Variants of: B1

Q: Which enrichment does the source give for chain 1 T6P here?
A: The enrichment was -4.51 log2 (difference from the parental peptide).

Q: chain 1 F15R was tested. Which enrichment did it give?
A: Its enrichment is 0.0833 log2 (difference from the parental peptide).

Q: How did the enrichment turn out when chain 1 E2K was run?
A: The enrichment was -0.857 log2 (difference from the parental peptide).

Variants of: B2

Q: For chain 1 Y14K, which enrichment is on record?
A: The enrichment was -1.21 log2 (difference from the parental peptide).

Q: Which enrichment does the source give for chain 1 Y14E here?
A: The enrichment was -0.645 log2 (difference from the parental peptide).

Q: For chain 1 Y14V, which enrichment is on record?
A: Its enrichment is 1.05 log2 (difference from the parental peptide).

Q: With chain 1 Y14R as the variant, how does the enrichment read?
A: The enrichment was -0.632 log2 (difference from the parental peptide).

Q: For chain 1 C13S, which enrichment is on record?
A: The enrichment was -1.77 log2 (difference from the parental peptide).

Q: Which enrichment does the source give for chain 1 C13H here?
A: The enrichment was -2.17 log2 (difference from the parental peptide).

Q: How did the enrichment turn out when chain 1 C13W was run?
A: The enrichment was -1.28 log2 (difference from the parental peptide).

Q: Which enrichment does the source give for chain 1 C13K here?
A: The enrichment was -4.94 log2 (difference from the parental peptide).

Q: With chain 1 C13T as the variant, how does the enrichment read?
A: The enrichment was -0.813 log2 (difference from the parental peptide).

Q: With chain 1 C13N as the variant, how does the enrichment read?
A: Its enrichment is -3.72 log2 (difference from the parental peptide).

Q: chain 1 T6I was tested. Which enrichment did it give?
A: Its enrichment is -5.53 log2 (difference from the parental peptide).

Q: For chain 1 T6C, which enrichment is on record?
A: Its enrichment is -9.06 log2 (difference from the parental peptide).

Q: With chain 1 T6N as the variant, how does the enrichment read?
A: The enrichment was 0.795 log2 (difference from the parental peptide).

Q: How did the enrichment turn out when chain 1 T6V was run?
A: Its enrichment is -3.12 log2 (difference from the parental peptide).

Q: With chain 1 T6Q as the variant, how does the enrichment read?
A: The enrichment was 1.13 log2 (difference from the parental peptide).

Q: With chain 1 F15C as the variant, how does the enrichment read?
A: Its enrichment is 0.0192 log2 (difference from the parental peptide).

Q: How did the enrichment turn out when chain 1 F15Y was run?
A: Its enrichment is 1.8 log2 (difference from the parental peptide).

Q: With chain 1 F15P as the variant, how does the enrichment read?
A: The enrichment was 2.45 log2 (difference from the parental peptide).

Q: With chain 1 F15N as the variant, how does the enrichment read?
A: Its enrichment is 1.4 log2 (difference from the parental peptide).

Q: For chain 1 F15V, which enrichment is on record?
A: The enrichment was 2.21 log2 (difference from the parental peptide).

Q: With chain 1 F15W as the variant, how does the enrichment read?
A: Its enrichment is 0.273 log2 (difference from the parental peptide).

Q: With chain 1 A9R as the variant, how does the enrichment read?
A: Its enrichment is -0.86 log2 (difference from the parental peptide).

Q: For chain 1 A9N, which enrichment is on record?
A: The enrichment was -3.86 log2 (difference from the parental peptide).

Q: How did the enrichment turn out when chain 1 A9W was run?
A: The enrichment was -5.37 log2 (difference from the parental peptide).

Q: chain 1 T16N was tested. Which enrichment did it give?
A: The enrichment was 0.543 log2 (difference from the parental peptide).

Q: chain 1 T16K was tested. Which enrichment did it give?
A: The enrichment was 1.41 log2 (difference from the parental peptide).

Q: With chain 1 T16C as the variant, how does the enrichment read?
A: The enrichment was -2.39 log2 (difference from the parental peptide).

Q: Which enrichment does the source give for chain 1 E1Q here?
A: The enrichment was -0.418 log2 (difference from the parental peptide).

Q: Which enrichment does the source give for chain 1 E1A here?
A: The enrichment was -0.674 log2 (difference from the parental peptide).

Q: For chain 1 E1R, which enrichment is on record?
A: The enrichment was -2.91 log2 (difference from the parental peptide).

Q: How did the enrichment turn out when chain 1 E1Y was run?
A: The enrichment was -0.879 log2 (difference from the parental peptide).

Q: How did the enrichment turn out when chain 1 D4G was run?
A: Its enrichment is -2.42 log2 (difference from the parental peptide).

Q: For chain 1 D4K, which enrichment is on record?
A: Its enrichment is -6.39 log2 (difference from the parental peptide).

Q: Which enrichment does the source give for chain 1 D4N here?
A: The enrichment was -2.35 log2 (difference from the parental peptide).

Q: For chain 1 D4S, which enrichment is on record?
A: Its enrichment is -2.5 log2 (difference from the parental peptide).

Q: Which enrichment does the source give for chain 1 D4R here?
A: The enrichment was -6.61 log2 (difference from the parental peptide).

Q: chain 1 D4E was tested. Which enrichment did it give?
A: The enrichment was -0.292 log2 (difference from the parental peptide).

Q: How did the enrichment turn out when chain 1 D4P was run?
A: The enrichment was -4.27 log2 (difference from the parental peptide).

Q: How did the enrichment turn out when chain 1 Y8W was run?
A: The enrichment was 0.61 log2 (difference from the parental peptide).

Q: How did the enrichment turn out when chain 1 Y8A was run?
A: The enrichment was -1.36 log2 (difference from the parental peptide).

Q: For chain 1 Y8D, which enrichment is on record?
A: The enrichment was -7.06 log2 (difference from the parental peptide).

Q: chain 1 P10C was tested. Which enrichment did it give?
A: The enrichment was -8.24 log2 (difference from the parental peptide).

Q: With chain 1 P10D as the variant, how does the enrichment read?
A: Its enrichment is -7.93 log2 (difference from the parental peptide).

Q: How did the enrichment turn out when chain 1 P10L was run?
A: The enrichment was -8.02 log2 (difference from the parental peptide).

Q: With chain 1 P10R as the variant, how does the enrichment read?
A: Its enrichment is -7.6 log2 (difference from the parental peptide).

Q: For chain 1 T12A, which enrichment is on record?
A: The enrichment was -0.122 log2 (difference from the parental peptide).

Q: With chain 1 T12D as the variant, how does the enrichment read?
A: The enrichment was -1.11 log2 (difference from the parental peptide).

Q: For chain 1 T12P, which enrichment is on record?
A: Its enrichment is -0.165 log2 (difference from the parental peptide).

Q: With chain 1 T12H as the variant, how does the enrichment read?
A: Its enrichment is -0.0146 log2 (difference from the parental peptide).

Q: With chain 1 E2S as the variant, how does the enrichment read?
A: The enrichment was -1.97 log2 (difference from the parental peptide).

Q: For chain 1 E2T, which enrichment is on record?
A: Its enrichment is -1.89 log2 (difference from the parental peptide).

Q: With chain 1 E2P as the variant, how does the enrichment read?
A: Its enrichment is -2.32 log2 (difference from the parental peptide).

Q: For chain 1 E2A, which enrichment is on record?
A: The enrichment was -1.44 log2 (difference from the parental peptide).

Q: How did the enrichment turn out when chain 1 A7I was run?
A: Its enrichment is 0.0548 log2 (difference from the parental peptide).

Q: For chain 1 A7E, which enrichment is on record?
A: The enrichment was 2.43 log2 (difference from the parental peptide).

Q: With chain 1 A7S as the variant, how does the enrichment read?
A: The enrichment was 0.947 log2 (difference from the parental peptide).

Q: For chain 1 A7K, which enrichment is on record?
A: Its enrichment is 0.582 log2 (difference from the parental peptide).

Q: For chain 1 A7D, which enrichment is on record?
A: Its enrichment is 2.55 log2 (difference from the parental peptide).

Q: How did the enrichment turn out when chain 1 D3F was run?
A: Its enrichment is -2.94 log2 (difference from the parental peptide).

Q: chain 1 D3V was tested. Which enrichment did it give?
A: Its enrichment is -3.08 log2 (difference from the parental peptide).

Q: chain 1 D3W was tested. Which enrichment did it give?
A: Its enrichment is -2.86 log2 (difference from the parental peptide).

Q: For chain 1 Y5L, which enrichment is on record?
A: The enrichment was -0.265 log2 (difference from the parental peptide).

Q: For chain 1 Y5S, which enrichment is on record?
A: Its enrichment is -5.16 log2 (difference from the parental peptide).

Q: chain 1 Y5G was tested. Which enrichment did it give?
A: The enrichment was -5.04 log2 (difference from the parental peptide).

Q: With chain 1 Y5M as the variant, how does the enrichment read?
A: Its enrichment is -0.636 log2 (difference from the parental peptide).

Q: How did the enrichment turn out when chain 1 Y5C was run?
A: Its enrichment is -7.1 log2 (difference from the parental peptide).

Q: With chain 1 Y5H as the variant, how does the enrichment read?
A: Its enrichment is -5.84 log2 (difference from the parental peptide).

Q: chain 1 L11N was tested. Which enrichment did it give?
A: Its enrichment is 0.274 log2 (difference from the parental peptide).

Q: chain 1 L11W was tested. Which enrichment did it give?
A: The enrichment was -0.601 log2 (difference from the parental peptide).

Q: For chain 1 L11H, which enrichment is on record?
A: The enrichment was 1.86 log2 (difference from the parental peptide).

Q: How did the enrichment turn out when chain 1 L11E was run?
A: Its enrichment is 0.712 log2 (difference from the parental peptide).

Q: chain 1 L11F was tested. Which enrichment did it give?
A: Its enrichment is -0.0302 log2 (difference from the parental peptide).
